Experimental data published in patent US11147875B2, “Compositions, combinations and related methods for photoimmunotherapy” (priority 2015, dated 2021).

What was measured:
[1] = system: PD-L1; assay: Effect of interferon gamma on PD-L1 expression, flow cytometry; format: cell-based; conditions: 375 pg/mL, 37.5 ng/mL, 18 hours; BxPC3 cells
Procedure: BxPC3 cells were seeded in 12 well dishes at 145,000 cells per well, and placed at 37° C. in a 5% CO2 incubator. The following day, the cells were washed once with RPMI 1640 supplemented with 10% FBS and 1% Penicillin/Streptomyocin (complete culture media). The cells were then incubated for 18 hours with complete culture media alone, complete culture media containing 375 pg/mL of recombinant human Interferon Gamma (carrier free) (Cat No: 570202, BioLegend, San Diego, Calif.), or complete culture media containing 37.5 ng/mL recombinant human Interferon Gamma (carrier free). After the 18 hour incubation with or without recombinant interferon gamma, the BxPC3 cells were washed one time with complete culture media. […]
After the one hour incubation, the cells were washed three times with phosphate buffer saline (pH 7) and incubated with enzyme free cell dissociation buffer (Catalog No: S-014-C, EMD Millipore, Billerica, Mass.) until cells were detached. After the cells detached, phosphate buffer saline containing 0.5% bovine serum albumin fraction V (Catalog No: 15260-037, ThermoFisher Scientific, Waltham, Mass.) was added to the cells, and the samples were immediately analyzed by flow cytometry for PD-L1 expression based on the fluorescent signal from the IR700 dye of the anti-PD-L1-IRDye 700DX. […]

[2] = system: BxPC3 cells; assay: Effect of interferon gamma on cell death; format: cell-based; conditions: 0 ng/mL to 3.75 μg/mL, 18 hours
Procedure: BxPC3 cells (#CRL-1687, ATCC, Manassas Va.) were seeded in 96 well black, clear-flat bottom dishes at 5000 cells per well, and placed in at 37° C., 5% CO2 incubator. The following day, the cells were washed once with RPMI 1640 supplemented with 10% FBS and 1% Penicillin/Streptomyocin (complete culture media). The cells were then incubated for 18 hours with complete culture media containing different concentrations of recombinant human Interferon Gamma (IFNgamma) (carrier free) (Cat No: 570202, BioLegend, San Diego, Calif.) ranging from 0 ng/mL to 3.75 μg/mL.
After 18 hours, the media containing different concentrations of interferon gamma was replaced with complete culture media containing 1× CellTox Green (Cat No: G8731, Promega, Madison, Wis.). […] The CellTox Green fluorescence signal was measured at 24.5 hours after light treatment using a fluorescence plate reader. The cells were then lysed with detergent, incubated at 37° C. for 30 minutes, and the CellTox Green fluorescence signal was measured again post lysis. The percent dead cells was calculated by taking the ratio between background (1× CellTox Green in complete culture media without cells) subtracted CellTox Green signal per well prior to and post lysis and multiplying the ratio by 100.

B1: IFNgamma: recombinant human Interferon Gamma (carrier free) (protein, UniProt P01579 24-161, looked up)
Interferon gamma: QDPYVKEAENLKKYFNAGHSDVADNGTLFLGILKNWKEESDRKIMQSQIVSFYFKLFKNFKDDQSIQKSVETIKEDMNVKFFNSNKKKRDDFEKLTNYSVTDLNVQRKAIHELIQVMAELSPAAKTGKRKRSQMLFRG
For B1, the PD-L1 expression [1] was “dose-dependent increase in PD-L1 expression” and the cell death [2] was “dose-dependent increase in cell death”.
